Data as given in US20040049024A1, “Compositions and methods related to the minn1 tumor suppressor gene and protein” (priority 2003, published 2004).
Peptide text beside a SMILES is read from it. * marks the point of attachment. Cbz = O=C(OCc1ccccc1)*; CH2F = FC*

Key:
[1] = tested on: 293-T cells; assay: Cell death after Minn1 or Fas transfection, with or without caspase inhibitor; type: cell-based, human; conditions: 30 μM, added immediately after transfection; DMSO carrier
Procedure: Fas is a well-characterized inducer of apoptosis (Nagata, Annu. Rev. Genet., 33:29-55 [1999]).
Apoptosis requires the activation of caspase proteases (Stennicke and Salvesen, Biochim. Biophys. Acta 1477:299-306 [2000]). In order to confirm that the cell death observed in the Minn1 and […] transfected cells was apoptotic cell death, the transfection experiments were repeated in the presence of the caspase inhibitor, z-VAD-fink (Calbiochem). The drug was added to the cells to a final concentration of 30 μM immediately after transfection and was maintained during subsequent medium changes. DMSO was used as the drug carrier, and was also included in transfections that contained no drug in order to normalize transfection conditions.

[2] = target: T1, HA-H-Ras(WT) fusion protein (UniProt P01112 1-186); assay: co-transfection in 293-T cells, anti-HA immunoprecipitation, anti-FLAG Western blot
T1 construct: Expressed in 293-T cells; precipitated with anti-HA beads; also called wild-type HA-H-Ras
Procedure: (§1) After 48 hours, the cells were lysed, immunoprecipitated using anti-HA antibody-conjugated sepharose beads (BAbCO), washed and analyzed by Western immunoblotting using an anti-FLAG monoclonal antibody (M2 antibody, SIGMA) and an alkaline phosphatase conjugated secondary antibody with an ECL detection kit (Amersham).
(§2) After 48 hours, the cells were lysed in EDTA-free RIPA buffer (described in Clark et al., J. Biol. Chem., 272:20990-20993 [1997]), immunoprecipitated with anti-HA antibody-conjugated sepharose beads (BAbCO), washed and subjected to Western immunoblotting using an anti-FLAG monoclonal primary antibody (M2 antibody, Sigma) and an alkaline phosphatase conjugated secondary antibody with an ECL chemiluminescence kit (Amersham).

[3] = target: T2, HA-H-Ras(G12V) fusion protein (UniProt P01112 1-186); assay: as above
T2 construct: Expressed in 293-T cells; precipitated with anti-HA beads; also called pCGNHA-H-Ras(G12V)
Procedure: as §1, §2

[4] = tested on: H-Ras; assay: In vivo Ras/Minn1 binding assay (co-transfection/co-precipitation in 293-T cells); type: cell-based, human; conditions: HA-H-Ras(WT) versus HA-H-Ras(G12V), 48 hours after co-transfection
Description: To confirm and complement the results observed in the in vitro binding assay, an in vivo binding assay was undertaken using recombinant FLAG-tagged Minn1 protein and hemagglutinin (HA)-tagged Ras proteins. These experiments used a standard co-transfection/co-precipitation protocol common in the art, using 293-T cells, a transformed human embryonal kidney cell line.
Expression vectors encoding two different forms of HA-tagged Ras protein were used in this assay, namely, a wild-type HA-H-Ras fusion protein and an HA-H-Ras containing a gain-of-function (G12V) mutation. This mutation is known to be oncogenic, and results in elevated Ras signalling activity (Clark and Der, in GTPases in Biology [eds. Dickey and Birmbauer], Springer-Verlag London Ltd., pp. 259-287 [1993]). […] Thus, this mutant form of Ras is considered to be locked in an active conformation.
as §1, with “The in vivo binding assay was conducted by co-transfecting mammalian expression vectors encoding HA-H-Ras(WT) or HA-H-Ras(G12V) with an expression vector encoding FLAG-Minn1 into 293-T cells. After” for “After”, “(Amersham). […]” for “(Amersham).”

[5] = target: T3, H-Ras (Homo sapiens, UniProt P01112); assay: In vitro Ras/Minn1 binding and co-precipitation assay
T3 construct: made in house; XL1-Blue Escherichia coli for the MBP fusions
Description: The ability of Ras and Minn1 to interact in vitro was examined. These experiments used in vitro produced and purified maltose binding protein (MBP) fusion proteins containing the Minn1 Ras-Association (RA) domain or the Raf Ras-Binding-Domain (RBD), and purified Ras protein in a standard protein binding and co-precipitation assay.
Ras protein was produced by inducing an H-Ras bacterial expression construct in bacteria followed by differential denaturation and dialysis, as known in the art (See e.g., Campbell-Burk and Carpenter, Methods Enzymol., 255:3-13 [1995]). […] Purity and concentrations of the recombinant proteins were assessed by denaturing polyacrylamide gel electrophoresis (SDS-PAGE) followed by Coomassie Blue staining and comparison to known standards.
After this time, the binding reactions were centrifuged and washed. Following the washing steps, the binding reactions were loaded and resolved using PAGE, blotted to a polyvinylidene difluoride (PVDF) membrane, and analyzed by Western immunoblotting using an anti-H-Ras monoclonal primary antibody (Quality Biotech, #146). Detection was accomplished using an alkaline phosphatase conjugated secondary antibody and ECL chemiluminescence reagent (Amersham). […]
The proteins resolved in the PAGE were analyzed by Western immunoblotting using an anti-H-Ras monoclonal antibody (Viro Med). […]

## COC(=O)C[C@H](NC(=O)[C@H](C)NC(=O)[C@@H](NC(=O)OCc1ccccc1)C(C)C)C(=O)CF [z-VAD-fmk] (Cbz-Val-Ala-Asp(OMe)-CH2F)
[1]
  Effect on Fas-induced cell death: severely reduced
  Effect on Minn1-induced cell death: severely reduced

B1: FLAG-tagged Minn1 protein (other, not shown: small tags and cut ends)
chain: MGEAEAPSFEMTWSSTTSSGYCSQEDSDSELEQYFTARTSLARRPRRDQDEPVEWETPDLFQAEIEQKIKEYNAQINSNLFMSLNKDGSYTGFIKVQLKLVRPVSVPSSKKPPSLQDARRGPGRGTSVRRRTSFYLPKDAVKHLHVLSRTRAREVIEALLRKFLVVDDPRKFALFERAERHGQVYLRKLLDDEQPLRLRLLAGPSDKALSFVLKENDSGEVNWDAFSMPELHNFLRILQREEEEHLRQILQKYSYCRQKIQEALHACPLG
notes: also called FLAG-Minn1
[2]
  binding result: binds
[3]
  binding result: binds

B2: FLAG-tagged Minn1: Minn1 protein with amino terminal FLAG epitope tag, expressed from pCDNAFLAG-Minn1 in 293-T cells (protein)
chain: B1 chain
modifications: left off: small tags and cut ends
[4]
  Association with HA-tagged Ras proteins (anti-HA immunoprecipitation, anti-FLAG Western): preferentially associated with the activated HA-Ras(G12V) protein

B3: MBP-Minn1: maltose binding protein fusion protein containing the Minn1 Ras-Association (RA) domain, amino acid positions 59-270 (protein)
chain: DLFQAEIEQKIKEYNAQINSNLFMSLNKDGSYTGFIKVQLKLVRPVSVPSSKKPPSLQDARRGPGRGTSVRRRTSFYLPKDAVKHLHVLSRTRAREVIEALLRKFLVVDDPRKFALFERAERHGQVYLRKLLDDEQPLRLRLLAGPSDKALSFVLKENDSGEVNWDAFSMPELHNFLRILQREEEEHLRQILQKYSYCRQKIQEALHACPLG
modifications: left off: large carriers
[5]; GTP-loaded versus GDP-loaded H-Ras
  GTP dependence of the interaction with Ras: GTP-dependent
[5]; purified H-Ras preloaded with GTP or GDP, 4° C. for 2 hours, Western immunoblot with anti-H-Ras antibody
  Co-precipitation of Ras protein (physical interaction with Ras): co-precipitated
